How the values were obtained:
[1] = molecular target: GFP-tagged human IGFLR1 on HEK293T cells (human); experiment: radioligand binding
[2] = molecular target: GFP-tagged mouse IGFLR1 on HEK293T cells (mouse); experiment: radioligand binding

Chain of FLAG-IGFL1 (human insulin growth factor-like family member 1) (Q6UW32 24-110): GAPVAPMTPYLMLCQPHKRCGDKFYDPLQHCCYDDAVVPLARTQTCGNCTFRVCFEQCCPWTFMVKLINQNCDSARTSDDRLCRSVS
Chain of FLAG-mIGFL (mouse insulin growth factor-like protein) (Q6B9Z0 24-140): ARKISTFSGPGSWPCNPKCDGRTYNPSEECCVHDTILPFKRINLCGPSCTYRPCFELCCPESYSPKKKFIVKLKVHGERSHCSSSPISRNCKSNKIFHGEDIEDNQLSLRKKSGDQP

Kd [1]	Kd [2]	Substance
0.31 nM		FLAG-IGFL1 (human insulin growth factor-like family member 1) (from UniProt Q6UW32 24-110) (ligand)
	0.73 nM	FLAG-mIGFL (mouse insulin growth factor-like protein) (from UniProt Q6B9Z0 24-140) (ligand)
